Data from paper doi:10.1101/2025.10.24.684422.

Tests used:
[1] = biological target: HSL3 ectodomain Gln120Ala (Arabidopsis thaliana); experiment: ITC
[2] = biological target: HAESA-LIKE 3 (HSL3) ectodomain, wild type (Arabidopsis thaliana); experiment: ITC

CTNIP4(46-70)_(Cys-Cys) (peptide)
fold reduction in binding affinity against wild-type HSL3 [1]: 60 fold

CTNIP4(47-70)_(Cys-Cys) (peptide)
fold reduction in binding against CTNIP4(46-70) (Cys-Cys) [2]: 4 fold

CTNIP4(48-70)_(Cys-Cys) (peptide)
fold loss of affinity against CTNIP4(46-70) (Cys-Cys) [2]: 200 fold

CTNIP4^C58A(46-63) (peptide)
fold reduction in binding affinity against CTNIP4(46-70) (Cys-Cys) [2]: 200 fold

CTNIP4^C58A.C68A(46-70) (peptide)
fold impairment of binding against CTNIP4(46-70) (Cys-Cys) [2]: 200 fold

CTNIP4^I61Y (peptide)
fold reduction in binding affinity against CTNIP4(46-70) (Cys-Cys) [2]: 120 fold
